For assay [1], the target named is Aspart precursor.
In assay [2] the target is Glulisine precursor.
The target of assay [3] is Aspart precursor. The source holds these as a separate data set.
Assay [4] concerns the target Lispro precursor.

The source of these data is US9090705B2.

On to Trypsin (enzyme), for which the conversion of the precursor by trypsin alone (chromatographic profile after 8 hr) in assay [1] was found to be 45%.

For Carboxypeptidase B (enzyme), the Yield (%) of Glulisine, trypsin and Carboxypeptidase B added together in assay [2] stood at 78%. This substance also had a Yield (%) of Aspart, trypsin and Carboxypeptidase B added together in assay [3] of 75%. Also, the Yield (%) of Lispro, trypsin and Carboxypeptidase B added together in assay [4] was determined as 78%.
